Experimental data from US12286661B2, “Methods for making high intensity sweeteners” (Firmenich Incorporated, priority 2018, dated 2025).
Positions count from the first letter of the chain named.

Assays:
[1] = tested on: mogrol; test: Mogroside IA and/or IE production from mogrol by glycosyltransferases expressed in S. cerevisiae, LCMS; format: cell-based; conditions: 10 μM mogrol, 2-4 days at 30° C.; identified by LCMS
Excerpt: (§1) DNA was obtained through gene synthesis either through Genescript, IDT, or Genewiz. For some of the cucurbitadienol synthases, cDNA or genomic DNA was obtained through 10-60 day old seedlings followed by PCR amplification using specific and degenerate primers. DNA was cloned through standard molecular biology techniques or through yeast gap repair cloning (Joska et al., 2014) into one of the following overexpression vectors: pESC-Ura, pESC-His, or pESC-LEU. Gene expression was regulated by one of the following promoters; Gall, Gal10, Tef1, or GDS. Yeast transformation was performed using Zymo Yeast Transformation Kit II. Yeast strains were grown in standard media (YPD or SC) containing the appropriate selection with 2% glucose or 2% galactose for induction of heterologous genes. Yeast strains were grown in shake flask or 96 well plates at 30° ° C., 140-250 rpm. When indicated, lanosterol synthase inhibitor, Ro 48-8071 (Cayman Chemicals) was added (50 ug/ml). Yeast samples producing mogrol precursors, mogrol and mogrosides were processed through one of the following: • Cucurbitadienol and 11-OH Cucurbitadienol: Samples cell pellets were lysed (Yeast Buster) followed by ethyl acetate extraction, drying, and resuspension in methanol. • ·Mogrol and Mogrosides: Samples cell pellets were lysed in 50% ETOH, incubated at 80° C. for 30 min, filtered, dried and resuspended in MeOH for LCMS screening.
For analyzing Mogroside IIIE & Compound 1, the LCMS method included the use of Fluoro-phenyl 2.1×100 mm column, gradient 15 to 30% B for 6 minutes, at flow rate of 0.55 ml/min. For analyzing yeast production of mogroside I during enzyme screening, the LCMS method used a Phenomenex Kinetex Polar C18, 4.6×100 mm, 2.6 μm column, and a gradient of 25% to 55% B over 3 minutes, and 100% B at 3.5 minutes with a flow rate of 1.5 ml/min. Detection by ESI source negative mode single ion monitoring of 683.4 for mogroside I and 799.4 for mogroside II.
Various glycosyltransferase proteins were expressed in S. cerevisiae grown in the presence of 10 μM mogrol for 2-4 days at 30° C., 140-250 rpm in either shake flask or 96 well plates. Glycosyltransferases leading to production of Mogroside IA (glycosylation of C24-OH position) and/or Mogroside IE (glycosylation of C3-OH position) are provided in Table 6. DNA and protein sequences for the enzymes are provided in SEQ IDs 1050-1071 (see Table 1).

[2] = tested on: cucurbitadienol; test: 11-OH cucurbitadienol production from cucurbitadienol by CYP450s expressed in S. cerevisiae, LCMS; format: cell-based; conditions: S. cerevisiae strain producing cucurbitadienol and expressing SgCPR; LCMS peak area of product vs. internal reference; hits over vector only control
Excerpt: as §1
For analyzing 11-OH cucurbitadienol, the LCMS method included the use of C8 2.1×100 mm column, gradient 60 to 90% B for 6 minutes at flow rate of 0.55 ml/min. For the enzyme screening, the LCMS method used was a Waters Acquity UPLC Protein BEH C4, 2.1×100 mm, 1.7 μm column and a gradient of 40% to 80% over 5 minutes, 95% B from 5.1 to 5.6 minutes with a flow rate of 0.55 ml/min, and ESI source positive mode single ion monitoring of 425.4.
Additional CYP450s were expressed in S. cerevisiae strain producing cucurbitadienol and expressing SgCPR. DNA and protein sequences for the CYP450 enzymes are shown in SEQ IDs 871-890 and 1024-1049 (see Table 1).

B1: SEQ ID NO. 1052/1053: glycosyltransferase (DNA/protein SEQ ID NO) producing mogroside I from mogrol (protein, listed as Siraitia grosvenorii)
chain: MEKGDTHILVFPFPSQGHINPLLQLSKRLIAKGIKVSLVTTLHVSNHLQLQGAYSNSVKIEVISDGSEDRLETDTMRQTLDRFRQKMTKNLEDFLQKAMVSSNPPKFILYDSTMPWVLEVAKEFGLDRAPFYTQSCALNSINYHVLHGQLKLPPETPTISLPSMPLLRPSDLPAYDFDPASTDTIIDLLTSQYSNIQDANLLFCNTFDKLEGEIIQWMETLGRPVKTVGPTVPSAYLDKRVENDKHYGLSLFKPNEDVCLKWLDSKPSGSVLYVSYGSLVEMGEEQLKELALGIKETGKFFLWVVRDTEAEKLPPNFVESVAEKGLVVSWCSQLEVLAHPSVGCFFTHCGWNSTLEALCLGVPVVAFPQWADQVTNAKFLEDVWKVGKRVKRNEQRLASKEEVRSCIWEVMEGERASEFKSNSMEWKKWAKEAVDEGGSSDKNIEEFVAMLKQT
With B1 the “Mogroside IA” value [1] was 1605 and the “Mogroside IE” value [1] was 22917.

B2: SEQ ID NO. 1032/1033: CYP450 enzyme (DNA/protein SEQ ID NO) producing 11-OH cucurbitadienol (protein, listed as Cucurbita maxima)
chain: MWTIVVGLATLAVAYYIHWINKWKDSKFNGVLPPGTMGLPLIGETLQLSRPSDSLDVHPFIKKKVKRYGSIFKTCLAGRPVVVSTDAEFNNYIMLQEGRAVEMWYLDTLSKFFGLDTEWLKALGFIHKYIRSITLNHFGAESLRERFLPRIEESAKETLCYWATQPSVEVKDSAAVMVFRTSMVKMVSKDSSKLLTGGLTKKFTGLLGGFLTLPINVPGTTYNKCMKDMKEIQKKLREILEGRLASGAGSDEDFLGQAVKDKGSQKFISDDFIIQLLFSISFASFESISTTLTLILNYLADHPDVVKELEAEHEAIRNARADPDGPITWEEYKSMTFTLHVIFETLRLGSVTPALLRKTTKELQINGYTIPEGWTVMLVTASRHRDPAVYKDPHTFNPWRWKELDSITIQKNFMPFGGGLRHCAGAEYSKVYLCTFLHILFTKYRWTKLKGGKVARAHILSFEDGLHMKFTPKE
For B2, the “Peak Area 11-OH CCB” value [2] was 0.4459.

B3: SEQ ID NO. 1054/1055: glycosyltransferase (DNA/protein SEQ ID NO) producing mogroside I from mogrol (protein, listed as Barbarea vulgaris)
chain: MVSEITHKSYPLHFVLFPFMAQGHMIPMVDIARLLAQRGVKITIVTTPHNAARFENVLSRAIESGLPISIVQVKLPSQEAGLPEGNETFDSLVSMELLVPFFKAVNMLEEPVQKLFEEMSPQPSCIISDFCLPYTSKIAKKFNIPKILFHGMCCFCLLCMHVLRKNREILENLKSDKEHFVVPYFPDRVEFTRPQVPMATYVPGEWHEIKEDIVEADKTSYGVIVNTYQELEPAYANDYKEARSGKAWTIGPVSLCNKVGADKAERGNKADIDQDECLKWLDSKEEGSVLYVCLGSICSLPLSQLKELGLGLEESQRPFIWVVRGWEKNKELLEWFSESGFEERVKDRGLLIKGWSPQMLILAHHSVGGFLTHCGWNSTLEGITSGIPLLTWPLFGDQFCNQKLVVQVLKVGVSAGVEEVTNWGEEEKIGVLVDKEGVKKAVEELMGESDDAKERRKRVKELGQLAQKAVEEGGSSHSNITSLLEDIMQLAQSNN
With B3 the “Mogroside IA” value [1] was 659331 and the “Mogroside IE” value [1] was 17857.

B4: SEQ ID NO. 1056/1057: glycosyltransferase (DNA/protein SEQ ID NO) producing mogroside I from mogrol (protein, listed as Barbarea vulgaris)
chain: B3 chain with M95T, E96K, M198L, I213M, D238G, I387V, R455I, Q467H, S493P
For B4, the “Mogroside IA” value [1] was 200270 and the “Mogroside IE” value [1] was 4690.

B5: SEQ ID NO. 889/890: CYP450 enzyme (DNA/protein SEQ ID NO) producing 11-OH cucurbitadienol (protein)
chain: MEVHWVCMCAATLLVCYIFGSKFVRNLNGWYYDVKLRRKEHPLPPGDMGWPLMGNLLSFIKDFSSGHPDSFINNLVLKYGRSGIYKTHLFGNPSIIVCEPQMCRRVLTDDVNFKLGYPKSIKELARCRPMIDVSNAEHRLFRRLITSPIVGHKALAMYLERLEEIVINSLEELSSMKHPVELLKEMKKVSFKAIVHVFMGSSNQDIIKKIGSSFTDLYNGMFSIPINVPGFTFHKALEARKKLAKIVQPVVDERRLMIENGQQEGDQRKDLIDILLEVKDENGRKLEDEDISDLLIGLLFAGHESTATSLMWSITYLTQHPHILKKAKEEQEEIMRTRLSSQKQLSFKEIKQMVYLSQVIDETLRCANIAFATFREATADVNINGYIIPKGWRVLIWARAIHMDSEYYPNPEEFNPSRWDDYNAKAGTFLPFGAGSRLCPGADLAKLEISIFLHYFLLNYRLERVNPECHVTSLPVSKPTDNCLAKVMKVSCA
modifications: Pathway step 3 sequence T CYP88D6 (codon optimized)
In the case of B5, the “Peak Area 11-OH CCB” value [2] is reported as 0.649.

B6: SEQ ID NO. 1030/1031: CYP450 enzyme (DNA/protein SEQ ID NO) producing 11-OH cucurbitadienol (protein)
chain: MWTIGLCIVAVLVIYLSYRLNKWSNPKCNGILPPGSMGLPLIGETLQLIVPSYSLDLHPFIKKKAQKYGPIFRTSVAGSPIVVSIDPEFNHYIVKQEGRLVELWYLDSFSKLFSTEGENKTNAIGVVHKYIRSIALNHFGVDPLKEKLLPQIEEFVDKALQTWSSHPLVEMKHAASVMIFDFSAKLFISYDAENSPMKMSEKFTNILGGFMSFPLNIPGTTYHKCLKDRNEALSMLRKIFKERINSPKRHFEDLLDQAINDTDKEKFLPEDFIINVVFGLLFASFESISAALSLILNLLAEHPAVLQELTDEHKAILKNRESPNSILTWDEYKSMTFTHQVINEALRLGGVAPGLLRKALKDIEFKGYTIPAGWTIMLVNSAIQLNPNTYKDPLAFNPWRWKDLDSLFVSKNFMPFGGGIRQCVGAEYSKTFLATFLHVLVTKYRWTKVKGGTIVRNPILEFTDGLHIKFSAISN
modifications: Quercus suber
With B6 the “Peak Area 11-OH CCB” value [2] was 0.9207.

B7: SEQ ID NO. 1034/1035: CYP450 enzyme (DNA/protein SEQ ID NO) producing 11-OH cucurbitadienol (protein)
chain: MEIINGVFLILPLGFVLVFEVLKRLNGLYYAVKLGKKWGELPPGDLSWPLLGSTLSFLKSFTVGPPESFIRIFTTRYGKVDMYKTHMFGRASILVCKPEICRQVLIDETKFVPSYPACMKRLFGRKSLIRVSKAEHRKLRRMTMAPISSHAALEIYIEHTEHTVISGLEEWSSVEKPLKLLTEIKELTFKIIWNIFMGSTSIDYTTKEMEALYDDVALGLFCFPINFPGFNFHKSLKARKRLYEILLSIVNEKRLMKKSKGESWEAKDMMDLMTEVEDEDGEGMDNETITDLIFGKLFAGHETSAFTTMWAIIFLTDHPHIFQRAKEEQEDIIRRRPSTQKGINLVEFKQMKFLSQVIDETLRLSSIAFATFREATTDININGKLIPKGWKVILWHRGLYMDEELHPSPQDFNPSRWDDFIGNPGAFTPFGLGVRLCPGRDLAKLEISIFLHHFLLNYKIERYNPQCQLTYLPLPHPKDKCLARVLKAAGQCV
modifications: Cucurbita pepo
For B7, the “Peak Area 11-OH CCB” value [2] was 0.3854.

B8: SEQ ID NO. 1026/1027: CYP450 enzyme (DNA/protein SEQ ID NO) producing 11-OH cucurbitadienol (protein, listed as Cucumis sativus)
chain: MWTILLGLATLAIAYYIHWVNKWKDSKFNGVLPPGTMGLPLIGETIQLSRPSDSLDVHPFIQRKVKRYGPIFKTCLAGRPVVVSTDAEFNHYIMLQEGRAVEMWYLDTLSKFFGLDTEWLKALGLIHKYIRSITLNHFGAESLRERFLPRIEESARETLHYWSTQTSVEVKESAAAMVFRTSIVKMFSEDSSKLLTEGLTKKFTGLLGGFLTLPLNLPGTTYHKCIKDMKQIQKKLKDILEERLAKGVKIDEDFLGQAIKDKESQQFISEEFIIQLLFSISFASFESISTTLTLILNFLADHPDVVKELEAEHEAIRKARADPDGPITWEEYKSMNFTLNVICETLRLGSVTPALLRKTTKEIQIKGYTIPEGWTVMLVTASRHRDPEVYKDPDTFNPWRWKELDSITIQKNFMPFGGGLRHCAGAEYSKVYLCTFLHILFTKYRWRKLKGGKIARAHILRFEDGLYVNFTPKE
In the case of B8, the “Peak Area 11-OH CCB” value [2] is reported as 0.9893.

B9: SEQ ID NO. 1028/1029: CYP450 enzyme (DNA/protein SEQ ID NO) producing 11-OH cucurbitadienol (protein)
chain: B8 chain with R63S, T166P, E197A, L217V, Q231E, K249S, V306A, K411R
modifications: Cucumis melo
For B9, the “Peak Area 11-OH CCB” value [2] was 0.9703.
